Assay results as given in publication PMC8871863, “Initiator-Directed Transcription: Fission Yeast Nmtl Initiator Directs Preinitiation Complex Formation and Transcriptional Initiation” (Genes, 2022).

Target: T1, TFIIB (fission yeast (S. pombe), UniProt O13749 1-340)
T1 construct: transcription initiation factor TFIIB of fission yeast, recombinant; also called recombinant fission yeast TFIIB
T1 sequence (looked up): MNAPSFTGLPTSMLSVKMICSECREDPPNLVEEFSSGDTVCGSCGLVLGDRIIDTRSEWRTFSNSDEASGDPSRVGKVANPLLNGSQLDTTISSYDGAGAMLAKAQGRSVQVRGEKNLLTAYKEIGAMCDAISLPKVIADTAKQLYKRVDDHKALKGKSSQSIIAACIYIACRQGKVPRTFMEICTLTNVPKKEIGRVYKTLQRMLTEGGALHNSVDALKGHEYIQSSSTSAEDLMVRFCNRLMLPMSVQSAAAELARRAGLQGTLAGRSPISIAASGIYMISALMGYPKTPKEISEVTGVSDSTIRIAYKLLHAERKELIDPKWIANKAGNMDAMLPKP
Assay: native gel or EMSA; purified factors incubated 5 min at 25 °C in 20 mM HEPES pH 7.9, 50 mM KCl, 5 mM MgCl2, 0.1 mM EDTA, 5% glycerol, 0.5% PEG 8000, 2 mM DTT, then 15 min at 30 °C with 32P-labelled nmt1 Inr DNA probe; 5% acrylamide gel at 4 °C; all complexes are formed on the DNA probe
Details: both partners purified

binding result: binds
B1: TBP (natural protein, fission yeast (S. pombe), UniProt P17871 1-231, looked up)
chain: MDFALPTTASQASAFMNNSSLTFPVLPNANNEATNETADSGDAEVSKNEGVSGIVPTLQNIVATVNLDCRLDLKTIALHARNAEYNPKRFAAVIMRIREPKSTALIFASGKMVVLGGKSEDDSKLASRKYARIIQKLGFNAKFTDFKIQNIVGSCDVKFPIRLEGLAYSHGTFSSYEPELFPGLIYRMVKPKVVLLIFVSGKIVLTGAKVREEIYQAFEAIYPVLSEFRKH
notes: also called fission yeast TBP
